Reference: patent publication US20220119490A1 (Genentech, published 2022)

Experiments:
[1] = molecular target: T1, PTPRD ΔG61 ΔE106 variant extracellular domain (human, UniProt P23468 21-1265); experiment: extracellular interaction screen: pentameric PTPRD variant ECD on ECD-Fc prey (FIG. 5L)
T1 construct: extracellular domain; meaning of the deletion notation not explained; also called IG1 mutant
T1 sequence (looked up): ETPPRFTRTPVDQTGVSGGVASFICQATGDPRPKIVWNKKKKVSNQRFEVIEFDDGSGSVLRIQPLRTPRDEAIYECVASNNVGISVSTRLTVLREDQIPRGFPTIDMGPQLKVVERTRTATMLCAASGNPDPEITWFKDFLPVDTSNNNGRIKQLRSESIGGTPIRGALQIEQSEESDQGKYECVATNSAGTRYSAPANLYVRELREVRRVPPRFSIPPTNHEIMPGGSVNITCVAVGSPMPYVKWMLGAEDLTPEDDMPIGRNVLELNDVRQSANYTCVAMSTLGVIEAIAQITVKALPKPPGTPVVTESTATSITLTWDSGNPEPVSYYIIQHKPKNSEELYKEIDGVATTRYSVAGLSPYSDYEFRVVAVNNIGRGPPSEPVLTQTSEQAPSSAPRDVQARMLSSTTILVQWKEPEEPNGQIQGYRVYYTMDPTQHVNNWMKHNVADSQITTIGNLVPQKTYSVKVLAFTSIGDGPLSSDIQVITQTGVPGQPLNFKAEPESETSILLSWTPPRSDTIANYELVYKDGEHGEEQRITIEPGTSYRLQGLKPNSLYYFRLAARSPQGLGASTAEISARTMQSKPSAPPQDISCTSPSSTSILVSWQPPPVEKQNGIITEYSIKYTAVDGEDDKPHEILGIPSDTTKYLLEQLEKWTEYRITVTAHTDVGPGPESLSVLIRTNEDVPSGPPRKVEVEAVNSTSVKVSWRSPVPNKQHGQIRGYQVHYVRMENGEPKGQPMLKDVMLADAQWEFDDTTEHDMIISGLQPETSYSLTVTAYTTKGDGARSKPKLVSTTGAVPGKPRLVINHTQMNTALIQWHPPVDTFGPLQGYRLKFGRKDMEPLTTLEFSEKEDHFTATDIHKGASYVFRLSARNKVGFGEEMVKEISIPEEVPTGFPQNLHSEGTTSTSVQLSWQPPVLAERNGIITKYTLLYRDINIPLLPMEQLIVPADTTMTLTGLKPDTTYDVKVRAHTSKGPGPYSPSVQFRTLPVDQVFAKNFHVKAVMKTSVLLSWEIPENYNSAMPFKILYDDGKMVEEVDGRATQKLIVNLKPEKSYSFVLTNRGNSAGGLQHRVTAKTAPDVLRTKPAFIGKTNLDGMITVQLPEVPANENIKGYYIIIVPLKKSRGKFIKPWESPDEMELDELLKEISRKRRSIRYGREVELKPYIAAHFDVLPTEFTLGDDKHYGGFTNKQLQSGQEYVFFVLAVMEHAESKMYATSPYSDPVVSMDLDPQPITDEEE

[2] = molecular target: T2, PTPRD S431L variant extracellular domain (human, UniProt P23468 21-1265); experiment: as above
T2 construct: extracellular domain; also called FN2 mutant
T2 sequence (looked up): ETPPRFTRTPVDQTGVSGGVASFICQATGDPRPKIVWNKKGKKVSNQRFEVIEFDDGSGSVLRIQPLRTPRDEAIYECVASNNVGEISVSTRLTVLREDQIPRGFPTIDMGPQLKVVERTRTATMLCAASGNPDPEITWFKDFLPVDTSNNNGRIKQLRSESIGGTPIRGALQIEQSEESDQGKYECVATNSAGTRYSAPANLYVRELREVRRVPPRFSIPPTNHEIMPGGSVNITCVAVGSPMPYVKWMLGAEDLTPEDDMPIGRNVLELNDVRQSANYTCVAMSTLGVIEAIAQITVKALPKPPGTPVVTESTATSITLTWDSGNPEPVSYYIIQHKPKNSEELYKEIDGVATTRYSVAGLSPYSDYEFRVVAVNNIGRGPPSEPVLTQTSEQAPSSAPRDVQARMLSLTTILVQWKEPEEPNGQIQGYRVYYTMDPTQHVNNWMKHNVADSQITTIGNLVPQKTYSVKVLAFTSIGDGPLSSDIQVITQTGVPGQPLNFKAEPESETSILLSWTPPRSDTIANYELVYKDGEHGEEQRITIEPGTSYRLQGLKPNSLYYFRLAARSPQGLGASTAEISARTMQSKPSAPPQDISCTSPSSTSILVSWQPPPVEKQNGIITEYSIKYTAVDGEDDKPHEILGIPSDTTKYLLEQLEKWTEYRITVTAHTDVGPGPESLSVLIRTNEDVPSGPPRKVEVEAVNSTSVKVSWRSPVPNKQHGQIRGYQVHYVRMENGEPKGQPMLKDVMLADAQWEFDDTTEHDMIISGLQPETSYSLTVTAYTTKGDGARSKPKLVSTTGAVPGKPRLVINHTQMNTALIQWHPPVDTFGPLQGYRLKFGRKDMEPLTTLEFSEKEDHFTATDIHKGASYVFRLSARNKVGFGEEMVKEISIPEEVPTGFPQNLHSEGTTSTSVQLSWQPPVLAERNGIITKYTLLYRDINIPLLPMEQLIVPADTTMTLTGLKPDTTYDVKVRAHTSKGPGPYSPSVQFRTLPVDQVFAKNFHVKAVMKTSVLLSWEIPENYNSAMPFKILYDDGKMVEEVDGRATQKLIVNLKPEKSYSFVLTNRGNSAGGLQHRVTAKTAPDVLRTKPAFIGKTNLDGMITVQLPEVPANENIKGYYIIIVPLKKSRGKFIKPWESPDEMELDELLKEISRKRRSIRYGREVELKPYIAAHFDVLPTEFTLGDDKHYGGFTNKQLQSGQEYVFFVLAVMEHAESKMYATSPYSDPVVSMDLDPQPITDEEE

B1: LRRC4B extracellular domain (receptor, human, UniProt Q9NT99 36-576, looked up)
chain: AGGGGVAVTSAAGGGSPPATSCPVACSCSNQASRVICTRRDLAEVPASIPVNTRYLNLQENGIQVIRTDTFKHLRHLEILQLSKNLVRKIEVGAFNGLPSLNTLELFDNRLTTVPTQAFEYLSKLRELWLRNNPIESIPSYAFNRVPSLRRLDLGELKRLEYISEAAFEGLVNLRYLNLGMCNLKDIPNLTALVRLEELELSGNRLDLIRPGSFQGLTSLRKLWLMHAQVATIERNAFDDLKSLEELNLSHNNLMSLPHDLFTPLHRLERVHLNHNPWHCNCDVLWLSWWLKETVPSNTTCCARCHAPAGLKGRYIGELDQSHFTCYAPVIVEPPTDLNVTEGMAAELKCRTGTSMTSVNWLTPNGTLMTHGSYRVRISVLHDGTLNFTNVTVQDTGQYTCMVTNSAGNTTASATLNVSAVDPVAAGGTGSGGGGPGGSGGVGGGSGGYTYFTTVTVETLETQPGEEALQPRGTEKEPPGPTTDGVWGGGRPGDAAGPASSSTTAPAPRSSRPTEKAFTVPITDVTENALKDLDDVMKTTK
notes: extracellular domain; ECD-Fc prey; also called NGL-3; netrin-G ligand-3
binding result [1]: no binding | binding result [2]: no binding
